Usually Kd stands for the constant that tells how readily two partners part at equilibrium. Low values mean higher affinity, high ones lower affinity.

Where two headings read alike, the source gives them in different places.

The text below walks through data of publication PMC3973318.

Holding throughout (experiment): EMSA
(Mobility shift assays separate free from complexed probe on a gel.)

Series [1] deals with T1, ΔN-DRH3 (Caenorhabditis elegans, UniProt Q93413 300-1119).
T1 sequence: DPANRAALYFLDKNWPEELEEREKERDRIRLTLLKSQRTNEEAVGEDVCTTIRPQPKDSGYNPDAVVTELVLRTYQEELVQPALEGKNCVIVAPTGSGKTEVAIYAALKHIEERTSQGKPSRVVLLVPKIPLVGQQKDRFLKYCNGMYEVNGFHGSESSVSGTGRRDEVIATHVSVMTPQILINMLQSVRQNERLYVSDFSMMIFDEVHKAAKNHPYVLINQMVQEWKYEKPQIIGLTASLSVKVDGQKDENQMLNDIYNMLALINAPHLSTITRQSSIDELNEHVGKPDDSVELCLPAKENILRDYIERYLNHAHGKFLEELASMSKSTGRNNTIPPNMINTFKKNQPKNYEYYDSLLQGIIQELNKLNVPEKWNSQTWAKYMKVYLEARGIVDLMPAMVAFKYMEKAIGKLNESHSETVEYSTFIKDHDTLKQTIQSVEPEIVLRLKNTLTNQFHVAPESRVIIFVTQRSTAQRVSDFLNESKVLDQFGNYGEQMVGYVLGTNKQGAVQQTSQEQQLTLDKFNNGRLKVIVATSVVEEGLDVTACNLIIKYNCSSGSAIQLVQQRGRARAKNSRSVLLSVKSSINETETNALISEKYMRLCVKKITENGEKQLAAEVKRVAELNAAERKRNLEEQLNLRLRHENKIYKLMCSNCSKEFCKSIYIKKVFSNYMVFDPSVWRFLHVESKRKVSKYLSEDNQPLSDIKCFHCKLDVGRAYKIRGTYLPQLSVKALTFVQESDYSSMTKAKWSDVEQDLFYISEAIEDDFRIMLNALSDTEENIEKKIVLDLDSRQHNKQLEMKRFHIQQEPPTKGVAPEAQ

The target of series [2] is T2, DRH-3 (Caenorhabditis elegans, UniProt Q93413 1-1119).
T2 sequence: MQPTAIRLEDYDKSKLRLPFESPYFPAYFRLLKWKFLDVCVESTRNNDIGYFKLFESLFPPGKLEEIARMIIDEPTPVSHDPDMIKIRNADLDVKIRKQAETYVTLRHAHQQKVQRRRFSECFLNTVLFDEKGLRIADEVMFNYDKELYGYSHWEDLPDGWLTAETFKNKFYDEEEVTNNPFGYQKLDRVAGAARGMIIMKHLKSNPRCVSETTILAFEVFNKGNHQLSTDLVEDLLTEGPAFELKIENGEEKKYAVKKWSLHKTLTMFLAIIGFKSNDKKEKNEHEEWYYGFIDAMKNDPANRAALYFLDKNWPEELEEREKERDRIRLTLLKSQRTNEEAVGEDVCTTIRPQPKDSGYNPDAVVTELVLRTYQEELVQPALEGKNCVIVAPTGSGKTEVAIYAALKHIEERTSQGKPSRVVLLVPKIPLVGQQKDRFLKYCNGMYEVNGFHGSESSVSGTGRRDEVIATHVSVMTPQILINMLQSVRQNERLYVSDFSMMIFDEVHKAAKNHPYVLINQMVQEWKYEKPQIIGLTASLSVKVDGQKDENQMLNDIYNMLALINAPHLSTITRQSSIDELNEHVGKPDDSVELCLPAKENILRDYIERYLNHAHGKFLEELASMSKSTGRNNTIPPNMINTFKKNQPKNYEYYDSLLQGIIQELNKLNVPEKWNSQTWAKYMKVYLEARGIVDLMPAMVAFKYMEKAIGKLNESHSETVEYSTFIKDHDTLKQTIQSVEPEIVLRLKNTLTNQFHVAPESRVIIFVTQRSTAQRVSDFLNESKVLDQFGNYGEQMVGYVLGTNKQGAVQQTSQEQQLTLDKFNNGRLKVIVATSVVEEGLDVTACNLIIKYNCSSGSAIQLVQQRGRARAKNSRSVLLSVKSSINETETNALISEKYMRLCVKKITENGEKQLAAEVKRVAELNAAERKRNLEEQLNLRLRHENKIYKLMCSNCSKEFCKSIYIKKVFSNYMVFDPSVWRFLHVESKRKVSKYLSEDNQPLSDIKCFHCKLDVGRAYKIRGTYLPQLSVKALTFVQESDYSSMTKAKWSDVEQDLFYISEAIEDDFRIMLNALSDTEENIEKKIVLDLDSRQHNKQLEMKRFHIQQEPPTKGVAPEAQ

Series [3] has as its target T1, ΔN-DRH3. The source holds these as a separate data set.
Series [4] addresses T2, DRH-3. The source holds these as a separate data set.
Another series concerns the target T3, MDA-5 (human, UniProt Q9BYX4 1-1025).
T3 sequence: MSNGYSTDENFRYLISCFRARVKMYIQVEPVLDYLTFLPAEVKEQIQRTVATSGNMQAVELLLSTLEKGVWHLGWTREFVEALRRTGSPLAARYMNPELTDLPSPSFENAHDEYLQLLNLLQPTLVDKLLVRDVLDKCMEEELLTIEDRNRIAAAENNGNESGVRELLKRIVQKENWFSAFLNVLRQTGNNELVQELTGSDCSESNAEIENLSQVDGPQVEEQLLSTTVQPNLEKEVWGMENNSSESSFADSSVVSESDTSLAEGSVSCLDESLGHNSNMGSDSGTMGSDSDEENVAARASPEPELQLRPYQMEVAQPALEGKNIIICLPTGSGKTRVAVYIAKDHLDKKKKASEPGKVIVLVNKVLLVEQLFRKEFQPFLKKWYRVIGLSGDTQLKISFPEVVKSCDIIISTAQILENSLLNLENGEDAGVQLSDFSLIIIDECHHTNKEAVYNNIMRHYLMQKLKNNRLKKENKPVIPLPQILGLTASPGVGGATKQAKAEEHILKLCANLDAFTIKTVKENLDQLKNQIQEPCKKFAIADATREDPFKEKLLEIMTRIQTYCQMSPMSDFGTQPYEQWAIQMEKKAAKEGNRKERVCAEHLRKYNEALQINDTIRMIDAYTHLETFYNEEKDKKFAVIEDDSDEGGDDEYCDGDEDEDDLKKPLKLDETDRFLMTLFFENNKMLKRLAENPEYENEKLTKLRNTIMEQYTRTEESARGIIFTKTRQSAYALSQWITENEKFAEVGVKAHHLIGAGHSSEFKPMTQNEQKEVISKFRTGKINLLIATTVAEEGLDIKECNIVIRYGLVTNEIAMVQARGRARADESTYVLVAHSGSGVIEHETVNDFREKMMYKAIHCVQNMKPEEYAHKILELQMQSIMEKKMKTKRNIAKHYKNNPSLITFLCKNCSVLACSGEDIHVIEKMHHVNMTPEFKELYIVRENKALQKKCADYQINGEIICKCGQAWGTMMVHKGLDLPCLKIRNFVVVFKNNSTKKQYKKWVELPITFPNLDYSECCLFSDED

The target in the next series is T4, RIG-I (UniProt O95786 1-925).
T4 sequence: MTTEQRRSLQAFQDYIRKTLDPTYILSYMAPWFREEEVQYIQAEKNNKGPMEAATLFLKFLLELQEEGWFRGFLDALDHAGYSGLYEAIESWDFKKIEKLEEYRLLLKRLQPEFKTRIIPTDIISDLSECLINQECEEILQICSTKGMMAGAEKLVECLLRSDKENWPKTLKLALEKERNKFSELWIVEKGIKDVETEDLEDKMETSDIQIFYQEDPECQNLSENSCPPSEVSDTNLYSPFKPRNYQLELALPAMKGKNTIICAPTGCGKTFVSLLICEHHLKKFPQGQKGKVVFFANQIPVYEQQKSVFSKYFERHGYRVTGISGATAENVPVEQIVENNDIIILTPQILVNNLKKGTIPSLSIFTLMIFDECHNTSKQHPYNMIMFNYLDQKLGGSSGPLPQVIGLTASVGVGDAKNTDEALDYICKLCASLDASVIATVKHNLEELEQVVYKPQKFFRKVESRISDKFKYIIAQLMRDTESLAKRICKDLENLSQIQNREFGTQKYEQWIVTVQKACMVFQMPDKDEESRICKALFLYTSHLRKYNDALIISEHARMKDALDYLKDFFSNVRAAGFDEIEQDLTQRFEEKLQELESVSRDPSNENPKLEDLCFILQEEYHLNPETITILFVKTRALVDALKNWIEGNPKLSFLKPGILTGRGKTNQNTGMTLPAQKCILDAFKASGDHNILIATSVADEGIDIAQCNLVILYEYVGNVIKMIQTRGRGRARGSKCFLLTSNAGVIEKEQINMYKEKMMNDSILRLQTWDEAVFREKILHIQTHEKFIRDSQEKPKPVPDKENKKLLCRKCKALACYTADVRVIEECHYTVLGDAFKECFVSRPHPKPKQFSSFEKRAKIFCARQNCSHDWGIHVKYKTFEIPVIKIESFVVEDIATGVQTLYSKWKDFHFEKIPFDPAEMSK

The target of series [5] is T1, ΔN-DRH3. The source holds these as a separate data set.
For series [6], the target named is T2, DRH-3. The source holds these as a separate data set.
For series [7], the target named is T1, ΔN-DRH3. The source holds these as a separate data set.

B1: dsPPP12 (dsRNA)
RNA 1: GCCCAGACCACC
RNA 2: GGUGGUCUGGGC
modifications: 5' triphosphate on top strand
On to B1, for which the Kd with ΔN-DRH3 [1] was 174 ± 12 nM.

B2: ds18 (dsRNA)
RNA 1: GGGUAUAGACUGACUAGG
RNA 2: CCUAGUCAGUCUAUACCC
Molecule B2 returned a Kd in the series with DRH-3 [2] of 679 ± 135 nM.

B3: ds25 (dsRNA)
RNA 1: GGGUAUAGACUGACUAGGAUCUCCC
RNA 2: GGGAGAUCCUAGUCAGUCUAUACCC
Turning to B3, the Kd with ΔN-DRH3 [3] is 376 ± 5 nM; with DRH-3 [4] it was 218 ± 7 nM; with MDA-5 it was 123 ± 4 nM; in the series with RIG-I it was 38 ± 6 nM.

B4: dsPPP25 (dsRNA)
RNA 1: GGGUAUAGACUGACUAGGAUCUCCC
RNA 2: GGGAGAUCCUAGUCAGUCUAUACCC
modifications: 5' triphosphate on top strand
For B4, in the series with ΔN-DRH3 [5], the Kd worked out at 120 ± 6 nM.

B5: ds22 (dsRNA)
RNA 1: GGGUACAGACUGACUAGGAUCG
RNA 2: CGAUCCUAGUCAGUCUGUACCC
Take B5: binding with DRH-3 [6] was put at a Kd of 230 ± 7 nM.

B6: ds34 (dsRNA)
RNA 1: GGAGUGCAUCUCCUUCCCUCCUUUCCUUCUGGUC
RNA 2: GACCAGAAGGAAAGGAGGGAAGGAGAUGCACUCC
Turning to B6, in the series with DRH-3 [4], binding was put at a Kd of 384 ± 19 nM.

B7: ds12 (dsRNA)
RNA 1: GCCCAGACCACC
RNA 2: GGUGGUCUGGGC
For B7, the figures for the Kd in the series with DRH-3 [2] and with ΔN-DRH3 [7] were 839 ± 53 nM and 522 ± 67 nM, respectively.
